Data from patent CN114651011A (dated 2022).
Substitutions are numbered along the chain they refer to.

T1: 野生型肽 PPSTSINEGSPLWTS (aa 66-80 of human CD43), peptide of the epitope substitution scan (human)
T1 construct: also called wild-type peptide; 人CD43的线性表位，用于取代筛选
T1 peptide: PPSTSINEGSPLWTS

T2: CD43#6 (CD43 with aa 64 to 78 deleted), expressed in HEK293T cells (human, UniProt P16150 20-400)
T2 construct: also called CD43克隆#6; 第五CD43变体; not shown: His tag (and GFP by the name of the vector pLenti-CMV-(insert)-Histag-GFP-2A-Puro)
T2 sequence: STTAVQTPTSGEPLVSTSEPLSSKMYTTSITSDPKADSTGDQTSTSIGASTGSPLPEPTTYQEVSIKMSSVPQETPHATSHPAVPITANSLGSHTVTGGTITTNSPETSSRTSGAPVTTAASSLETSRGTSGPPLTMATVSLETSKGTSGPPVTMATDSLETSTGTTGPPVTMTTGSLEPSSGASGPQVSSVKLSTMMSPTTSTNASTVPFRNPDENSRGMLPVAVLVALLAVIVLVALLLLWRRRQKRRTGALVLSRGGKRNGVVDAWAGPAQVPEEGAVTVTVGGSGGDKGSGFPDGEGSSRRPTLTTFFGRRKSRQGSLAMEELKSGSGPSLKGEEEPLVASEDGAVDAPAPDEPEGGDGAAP

T3: 人CD43 (human CD43, UMG1 epitope), endogenous on human cells, cell lines and tissues (human, UniProt P16150 20-400)
T3 construct: The cells carry the natural protein; also called UMG1表位; UMG1抗原
T3 sequence: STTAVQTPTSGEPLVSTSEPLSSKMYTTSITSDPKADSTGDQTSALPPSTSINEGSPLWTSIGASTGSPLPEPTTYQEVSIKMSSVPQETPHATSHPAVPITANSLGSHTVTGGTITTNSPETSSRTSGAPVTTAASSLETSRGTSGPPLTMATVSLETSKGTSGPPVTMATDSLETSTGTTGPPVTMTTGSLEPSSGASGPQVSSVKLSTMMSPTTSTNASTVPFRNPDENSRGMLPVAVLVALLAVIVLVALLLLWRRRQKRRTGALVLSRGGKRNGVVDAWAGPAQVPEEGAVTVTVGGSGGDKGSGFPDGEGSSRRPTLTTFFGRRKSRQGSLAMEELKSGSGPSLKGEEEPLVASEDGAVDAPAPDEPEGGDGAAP

T4: 重组人CD43细胞外部分 (aa 20-253), produced in E. coli, not glycosylated (human, UniProt P16150 20-253)
T4 construct: also called 重组人CD43分析物(aa 20-253); CD43的无糖基化细胞外部分
T4 sequence: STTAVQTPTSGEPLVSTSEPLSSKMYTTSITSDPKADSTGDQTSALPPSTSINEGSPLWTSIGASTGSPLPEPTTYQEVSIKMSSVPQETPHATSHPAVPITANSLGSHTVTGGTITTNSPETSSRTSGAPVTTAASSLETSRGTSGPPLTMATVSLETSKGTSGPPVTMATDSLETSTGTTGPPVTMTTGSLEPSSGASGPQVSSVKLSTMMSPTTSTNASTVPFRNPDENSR

B1: h-UMG1 (人源化UMG1单克隆抗体, H3-L4) (antibody, human IgG1, kappa, V domains shown)
VH: EVQLVESGGGLVQPGGSLRLSCVASGFTFSSFGMHWVRQAPGKGLEWVAYISSGSGNFYYVDTVKGRFTISRDNAKNSLYLQMNSLRAEDTAVYYCARSTYYHGSRGAMDYWGQGTLVTVSS
VL: QVVMTQSPAFLSVTPGEKVTITCSASSSVSSMYWYQLKPDQAPKLLIYDTSKMASGVPIRFSGSGSGTDFTFTVSSVEAEDAATYYCQQWSSYPPITFGGGTKVEIKR
notes: IgG1; also called h-UMG1单抗; 人源化单克隆抗CD43抗体
B2: 单克隆抗体UMG1 (murine anti-human CD43 antibody produced by the hybridoma deposited as ICLC PD n°16001) (antibody, V domains shown)
VH: DVQLVESGGGLVQPGGSRKLSCVASGFTFSSFGMHWVRQAPEKGLEWVAYISSGSGNFYYVDTVKGRFTISRDNPKNTLFLQMTSLRSEDTAMYYCARSTYYHGSRGAMDYWGQGTSVTVSS
VL: QIALTQSPAIMSASPGEKVTMTCSASSSVSSMYWYQLKPGSSPRLLIYDTSKMASGVPIRFSGSGSGTSFSLTVSRVEAEDAATYYCQQWSSYPPITFGAGSKLELK
notes: Murine antibody, kappa light chain; the negative control is a murine IgG1; also called m-UMG1; mUMG1
B3: ch-UMG1 (嵌合抗体, murine UMG1 variable regions on human IgG1 constant regions) (antibody, V domains shown)
VH: B2 VH
VL: QIALTQSPAIMSASPGEKVTMTCSASSSVSSMYWYQLKPGSSPRLLIYDTSKMASGVPIRFSGSGSGTSFSLTVSRVEAEDAATYYCQQWSSYPPITFGAGSKLELKR
notes: also called UMG1-CH; 嵌合单克隆抗体
B4: 人源化UMG1抗体 H2-L1 (antibody, IgG1, V domains shown)
VH: B1 VH with A49S
VL: EIVLTQSPATLSLSPGERATLSCSASSSVSSMYWYQQKPGLAPRLLIYDTSKMASGIPDRFSGSGSGTDFTLTISRLEPEDFAVYYCQQWSSYPPITFGQGTRLEIK
notes: one of the 16 combinations of H1-4 with L1-4
B5: 人源化UMG1抗体 H2-L3 (antibody, IgG1, V domains shown)
VH: B1 VH with A49S
VL: QVVMTQSPAFLSVTPGEKVTITCSASSSVSSMYWYQQKPDQAPKLLIYDTSKMASGVPSRFSGSGSGTDFTFTISSLEAEDAATYYCQQWSSYPPITFGGGTKVEIK
notes: as for B4
B6: 人源化UMG1抗体 H1-L4 (antibody, IgG1, V domains shown)
VH: B1 VH with V23A, A49S
VL: B5 VL with Q37L, S59I, I74V, L77V
notes: as for B4
B7: 人源化UMG1抗体 H1-L1 (antibody, IgG1, V domains shown)
VH: B1 VH with V23A, A49S
VL: B4 VL
notes: as for B4
B8: 人源化UMG1抗体 H2-L2 (antibody, IgG1, V domains shown)
VH: B1 VH with A49S
VL: B4 VL with V3A, Q37L, D59I, I74V, L77V
notes: as for B4
B9: 人源化UMG1抗体 H2-L4 (antibody, IgG1, V domains shown)
VH: B1 VH with A49S
VL: B5 VL with Q37L, S59I, I74V, L77V
notes: as for B4
B10: 人源化UMG1抗体 H3-L2 (antibody, IgG1, V domains shown)
VH: B1 VH
VL: B4 VL with V3A, Q37L, D59I, I74V, L77V
notes: as for B4
B11: 人源化UMG1抗体 H4-L1 (antibody, IgG1, V domains shown)
VH: B1 VH with E1Q, L11V, A75S, S78T
VL: B4 VL
notes: as for B4
B12: 人源化UMG1抗体 H3-L1 (antibody, IgG1, V domains shown)
VH: B1 VH
VL: B4 VL
notes: as for B4
B13: 人源化UMG1抗体 H1-L3 (antibody, IgG1, V domains shown)
VH: B1 VH with V23A, A49S
VL: B5 VL
notes: as for B4
B14: 人源化UMG1抗体 H4-L3 (antibody, IgG1, V domains shown)
VH: B1 VH with E1Q, L11V, A75S, S78T
VL: B5 VL
notes: as for B4
B15: 人源化UMG1抗体 H4-L4 (antibody, IgG1, V domains shown)
VH: B1 VH with E1Q, L11V, A75S, S78T
VL: B5 VL with Q37L, S59I, I74V, L77V
notes: as for B4
B16: 人源化UMG1抗体 H1-L2 (antibody, IgG1, V domains shown)
VH: B1 VH with V23A, A49S
VL: B4 VL with V3A, Q37L, D59I, I74V, L77V
notes: as for B4
B17: 人源化UMG1抗体 H3-L3 (antibody, IgG1, V domains shown)
VH: B1 VH
VL: B5 VL
notes: as for B4
B18: 人源化UMG1抗体 H4-L2 (antibody, IgG1, V domains shown)
VH: B1 VH with E1Q, L11V, A75S, S78T
VL: B4 VL with V3A, Q37L, D59I, I74V, L77V
notes: as for B4

Biological target: T1, 野生型肽 PPSTSINEGSPLWTS (aa 66-80 of human …)
Assay: substitution scan peptide microarray, antibody at 1, 10, 100 and 250 μg/ml

Row | binding result | Binder
1 | binds | B1

biological target: T2, CD43#6 (CD43 with aa 64 to 78 deleted), …; assay: FACS with h-UMG1-PE on GFP-positive transfected HEK293T cells

Row | binding result | Binder
2 | no binding (tested: 1μg/ml) | B1

biological target: T3, 人CD43 (human CD43, UMG1 epitope), …; assay: flow cytometry on PBMC of healthy donors, 1 μg/ml, FITC secondary antibody

Row | binding result | Binder
3 | binds | B2

biological target: T3, 人CD43 (human CD43, UMG1 epitope), …; assay: immunofluorescence on fixed THP-1-derived macrophages without or with PANC1 cells

Row | binding result | Binder
4 | binds | B3

biological target: T3, 人CD43 (human CD43, UMG1 epitope), …; assay: flow cytometry (MFI) on HPB-ALL and H9 cells, 1 μg/ml, FITC mouse anti-human IgG

Row | binding result | Binder
5 | binds | B4
6 | binds | B5
7 | binds | B6
8 | binds | B7
9 | binds | B8
10 | binds | B9
11 | binds | B10
12 | binds | B11
13 | binds | B12
14 | binds | B13
15 | binds | B14
16 | binds | B15
17 | binds | B16
18 | binds | B17
19 | binds | B18

biological target: T4, 重组人CD43细胞外部分 (aa 20-253), produced in …; assay: SPRi (PlexArray HT), antibody printed on the gold chip, recombinant CD43 aa 20-253 from E. coli as analyte, 25°C

Row | Kd [nM] | Binder
20 | 99.4 | B1
